Measurements published in PMC3245711.

Target: T1, human KCNJ2 channel (pND-CTFH construct, C-terminal FLAG and octa-histidine tags) (human), P63252
T1 chain: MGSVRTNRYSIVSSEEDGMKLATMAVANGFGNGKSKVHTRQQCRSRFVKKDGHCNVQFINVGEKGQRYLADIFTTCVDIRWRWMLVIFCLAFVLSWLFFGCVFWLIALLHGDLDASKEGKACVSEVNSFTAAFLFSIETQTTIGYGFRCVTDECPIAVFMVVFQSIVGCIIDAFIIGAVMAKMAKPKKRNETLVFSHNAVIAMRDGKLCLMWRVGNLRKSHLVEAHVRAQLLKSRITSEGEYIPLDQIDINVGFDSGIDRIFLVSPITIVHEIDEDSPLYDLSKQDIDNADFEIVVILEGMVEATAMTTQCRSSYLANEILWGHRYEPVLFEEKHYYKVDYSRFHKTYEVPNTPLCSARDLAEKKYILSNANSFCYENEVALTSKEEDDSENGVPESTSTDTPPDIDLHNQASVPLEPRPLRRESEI
Experiment: SEC
Settings: remark: other sources report otherwise

- stoichiometry N: 4
B1: human KCNJ2 channel (pND-CTFH construct, C-terminal FLAG and octa-histidine tags), P63252 1-427 (natural protein)
chain: T1 chain
